Measurements reported in paper PMC11203719, “Mts1 (S100A4) and Its Peptide Demonstrate Cytotoxic Activity in Complex with Tag7 (PGLYRP1) Peptide” (International Journal of Molecular Sciences, 2024).

Target: Mts1 (S100A4) protein, recombinant human (human) (UniProt P26447)
Assay: MST; Mts1 labelled with Alexa Fluor 633 (200 nM), preincubated 20 min in the dark at room temperature with 16 concentrations of Tag7 or peptide; Monolith NT.115, 10% IR laser power; apparent Kd

Chain of Mts1 (S100A4) protein, recombinant human (human) (P26447 whole entry): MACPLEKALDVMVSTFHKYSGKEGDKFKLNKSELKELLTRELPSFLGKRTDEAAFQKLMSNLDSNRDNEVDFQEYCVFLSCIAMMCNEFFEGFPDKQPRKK

With “Tag7 (PGLYRP1) protein, recombinant (from UniProt O88593 19-182) (natural protein)” as the substance, how does the Kd read?
The Kd was 9.21 µM.
